Tests used:
Format in all cases: cell-based, Escherichia coli
[1] = tested on: β-lactamase transport in E. coli JM109(DE3); assay: Ampicillin resistance, ability to form colonies on LB-agar plates with increasing ampicillin; conditions: solid agar media with increasing ampicillin
Text: The enhancement of protein translocation was further investigated using the plasmid-borne multicopy gene, β-lactamase. See Example 14. β-lactamase protein levels are much higher than induced alkaline phosphatase making this system a more sensitive monitor of protein translocation without the complications posed by low phosphate induction. Like alkaline phosphatase, β-lactamase is translocated into the periplasm, where it detoxifies the antibiotic ampicillin, thereby conferring ampicillin-resistance to cells. Because the level of antibiotic resistance conferred also reflects the level of protein transport activity, the level of ampicillin resistance was determined for Bce44B expressing cells and compared to that of Oee1-Dhfr-expressing cells on solid agar media containing increasing concentrations of ampicillin. […] The Bce44B-expressing cells formed colonies with ampicillin concentrations as high as 3 mg/ml, whereas Oee1-Dhfr-expressing cells could not form colonies beyond 1 mg/ml.
Changes to β-lactamase transport were monitored by two different approaches: 1) the ability to form colonies on solid LB-agar plates containing increasing concentrations of ampicillin (50 μg/ml to 3.0 mg/ml); and 2) the level of transported and processed β-lactamase detected by immunoblotting total protein samples of cells grown in LB-broth containing increasing ampicillin concentrations. […]

[2] = tested on: β-lactamase translocation in E. coli JM109(DE3); assay: Immunoblot of transported and processed β-lactamase; conditions: per cell basis, four hours, ampicillin 50 μg to 3 mg/ml
Method: Changes to β-lactamase transport were monitored by two different approaches: 1) the ability to form colonies on solid LB-agar plates containing increasing concentrations of ampicillin (50 μg/ml to 3.0 mg/ml); and 2) the level of transported and processed β-lactamase detected by immunoblotting total protein samples of cells grown in LB-broth containing increasing ampicillin concentrations.
The same cells were also used to determine the level of transported β-lactamase grown in media containing increasing concentrations of ampicillin. Cultures were diluted 5× into LB broth with increasing amounts of ampicillin (50 μg/ml to 3.0 mg/ml) and allowed to grow up to 4 hours. The level of transported β-lactamase was monitored by immunoblotting analysis of samples taken at time intervals of 0 hr, 0.5 hr, 1.0 hr, 1.5 hr, 2.0 hr, 3 hr and 4 hr. Immunoblot analysis was performed on total cellular protein samples with anti-p-lactamase antibodies as outlined above.

[3] = tested on: alkaline phosphatase translocation in E. coli JM109 (DE3); assay: Induction and transport of alkaline phosphatase under phosphate starvation (immunoblot); conditions: low phosphate (50 μM), cells harvested at the two growth peaks
Text: The directionality of the distribution of Bce44B in the cytoplasmic membrane and the capability of the bacterium to recognize and integrate Bce44B into the membrane raised the possibility that Bce44B may be functional as a foreign component of the bacterial protein transport apparatus. Functionality of Bce44B was therefore assessed by monitoring two transported bacterial proteins, alkaline phosphatase and , β-lactamase. Alkaline phosphatase is a single copy gene and is transported into the periplasm upon induction by phosphate starvation (50 μM) (Torriani et al. (1960) Biochim. Biophys. Acta. 38:460). The growth characteristics of Bce44B-containing bacteria were compared to those of a strain expressing Oee1-Dhfr, a chimeric chloroplast protein precursor. The expression vector used in the Oee1-Dhfr transformed strain was the same as the one in the Bce44B transformed cells. Growth was monitored in M9 minimal media with growth-permissive phosphate levels or with low phosphate levels (50 μM).
The induction and analysis of alkaline phosphatase was performed as described by Torniani et al. (1960) Biochim. Biophys. Acta. 38:460. […]

B1: Bce44B: plastid transport protein, Brassica napus 44 kDa chloroplast envelope protein, member of Com44/Cim44, encoded by SEQ ID NO:1 (protein)
chain: MQTAMKTMMNQMNTQNSQFNNPGFPTGAGAGAGSPFPFPFPPQTSPTTSPFQPQSQSSGATVDLTATKVDRPPVSKPQPTPIPPTKSIEVYKPSVVVEENKAMKEEKNYAFEDVSPEETTKESPFSNYEEVSETSAPKETRLFDDVLQNGAAPANGATASDVFQSLGAGKGWAGGSVEVLEKMIEYPTFQKMLYPHLPEEMRNPESFKWVRKNPQYRQQLQDMLNNMSESGEWDKRMTETLKNFDPNSPEVKQGFDQLGLTPEEVISKIMENPDVSMAFQNPRVEAALMDCSENPMNIMKYQNDKEVMDVFNKISQLFPGLTG
ampicillin concentration up to which expressing cells form colonies [1]: ≤ 3 mg/mL
level of processed β-lactamase compared with Oee1-Dhfr-expressing cells [2]: higher
level of processed alkaline phosphatase relative to Oee1-Dhfr-expressing cells [3]: higher level

Reference: patent US6353153B1, “Enhanced transport with a plastid membrane transport protein” (priority 1996, dated 2002)
